Test results from patent publication US20240335553A1.

Columns and labels:
[1] = target: cation-independent mannose-6-phosphate receptor (CI-MPR), recombinant human IGF-II R (human) (UniProt P11717); test: SPR, CI-MPR immobilized, antibody as analyte, 2-fold dilutions from 500 nM
[2] = target: cation-independent mannose-6-phosphate receptor (CI-MPR), recombinant human IGF-II R (human) (UniProt P11717); test: SPR (Biacore T200), CI-MPR immobilized on a CM5 chip, antibody as analyte in 2-fold dilutions from 500 nM to 0.98 nM
[3] = target: cation-independent mannose-6-phosphate receptor (CI-MPR), recombinant human IGF-II R (human) (UniProt P11717); test: SPR, CI-MPR immobilized, 1:1 Langmuir global fit
[4] = target: epidermal growth factor receptor (EGFR) (human) (UniProt P00533); test: cell-based or functional assay
[5] = target: cation-independent mannose-6-phosphate receptor (CI-MPR), recombinant human IGF-II R (human) (UniProt P11717); test: SPR, CI-MPR immobilized
[6] = target: cation-independent mannose-6-phosphate receptor (CI-MPR), recombinant human IGF-II R (human) (UniProt P11717); test: SPR, CI-MPR immobilized, steady-state fitting

Row | Substance | Kd [1] [nM] | Kd [2] [nM] | Kd [3] [nM] | degradation of total EGFR in HepG2 cells (Western blot, 48 h, 10 nM antibody) [4] [%] | fold affinity against glycoform (9) [5] [fold] | Kd [6] [nM] | fold affinity against glycoform (3) [5] [fold]
1 | cetuximab M6P-glycoform 9 (cetuximab carrying the M6P tetrasaccharide glycan at the Fc domain) (antibody) | 72.4 | 70.3 | 70.3 | 57 | – | – | –
2 | cetuximab M6P-glycoform 10 (cetuximab carrying the bis-phosphorylated heptasaccharide N-glycan) (antibody) | – | 29.6 | 29.6 | – | 2 | – | –
3 | trastuzumab M6P-glycoform 6 (trastuzumab carrying the M6P-Man3GlcNAc2 glycan) (antibody) | – | – | – | – | – | 700 | –

Further substances by falling Kd [2], results first:

Row | Kd [1] [nM] | Kd [2] [nM] | Kd [3] [nM] | degradation of total EGFR in HepG2 cells (Western blot, 48 h, 10 nM antibody) [4] [%] | fold affinity against glycoform (9) [5] [fold] | Kd [6] [nM] | fold affinity against glycoform (3) [5] [fold] | Substance
4 | 30.2 | 28.6 | 28.6 | – | – | – | – | trastuzumab M6P-glycoform 3 (trastuzumab carrying the M6P tetrasaccharide glycan at the Fc domain) (antibody)
5 | – | 5.4 | 5.4 | – | – | – | 4 | trastuzumab M6P-glycoform 7 (trastuzumab carrying the bis-phosphorylated heptasaccharide moiety) (antibody)
